According to paper PMC8630017, “Structural insights into proteolytic activation of the human Dispatched1 transporter for Hedgehog morphogen release” (Nature Communications, 2021):

molecular target: wild-type human Dispatched1 (hDisp1), N-terminal Flag tag and C-terminal Twin-Strep tag (human) (UniProt Q96F81); assay: not given

Molecule | Scube2-dependent Shh-NL release from HEK293T cells after 6 h, against WT Shh-NL (fold reduction) | Scube2-dependent Shh-NL release from HEK293T cells after 6 h, against WT Shh-NL (surface localisation of this mutant reduced just below 50%) (fold reduction)
NanoLuc-tagged human Shh, mutant N81A (from UniProt Q15465 24-462) (ligand) |  | > 2
NanoLuc-tagged human Shh, mutant Y80A (from UniProt Q15465 24-462) (ligand) | > 2 | 
NanoLuc-tagged human Shh, mutant N50A (from UniProt Q15465 24-462) (ligand) | > 2 | 
NanoLuc-tagged human Shh, mutant K74A (from UniProt Q15465 24-462) (ligand) | > 2 | 
NanoLuc-tagged human Shh, mutant L56K (from UniProt Q15465 24-462) (ligand) | > 2 | 

More lines, now with the values ahead:

Scube2-dependent Shh-NL release from HEK293T cells after 6 h, against WT Shh-NL (fold reduction) | Scube2-dependent Shh-NL release from HEK293T cells after 6 h, against WT Shh-NL (surface localisation of this mutant reduced just below 50%) (fold reduction) | Molecule
> 2 |  | NanoLuc-tagged human Shh, mutant E71A (from UniProt Q15465 24-462) (ligand)
> 2 |  | NanoLuc-tagged human Shh, mutant L56A (from UniProt Q15465 24-462) (ligand)
> 2 |  | NanoLuc-tagged human Shh, mutant V51E (from UniProt Q15465 24-462) (ligand)

Molecular target: the molecule itself
Assay: SEC; purified hDisp1^NNN on Superose 6 10/300 GL in 25 mM Tris pH 8.0, 150 mM NaCl, 0.02% GDN

Molecule | binding result
hDisp1^NNN (D572N, D573N, D1051N), N-terminal Flag tag and C-terminal His10 tag, purified (natural protein, human, UniProt Q96F81 1-1524, looked up, human Dispatched1, M1 to L1524, triple mutant in TM4 and TM10; The purified protein is a mix of uncleaved (175 kDa) and Furin-cleaved species (C145 with the His tag; N35 and N30 with the Flag tag); source: HEK293F, transiently transfected, purified (anti-Flag resin, Ni-NTA, SEC on Superose 6) in GDN; not shown: Flag, N-terminal, kept; His10, C-terminal, kept) MAMSNGNNDFVVLSNSSIATSAANPSPLTPCDGDHAAQQLTPKEATRTKVSPNGCLQLNGTVKSSFLPLDNQRMPQMLPQCCHPCPYHHPLTSHSSHQECHPEAGPAAPSALASCCMQPHSEYSASLCPNHSPVYQTTCCLQPSPSFCLHHPWPDHFQHQPVQQHIANIRPSRPFKLPKSYAALIADWPVVVLGMCTMFIVVCALVGVLVPELPDFSDPLLGFEPRGTAIGQRLVTWNNMVKNTGYKATLANYPFKYADEQAKSHRDDRWSDDHYEREKREVDWNFHKDSFFCDVPSDRYSRVVFTSSGGETLWNLPAIKSMCNVDNSRIRSHPQFGDLCQRTTAASCCPSWTLGNYIAILNNRSSCQKIVERDVSHTLKLLRTCAKHYQNGTLGPDCWDMAARRKDQLKCTNVPRKCTKYNAVYQILHYLVDKDFMTPKTADYATPALKYSMLFSPTEKGESMMNIYLDNFENWNSSDGVTTITGIEFGIKHSLFQDYLLMDTVYPAIAIVIVLLVMCVYTKSMFITLMTMFAIISSLIVSYFLYRVVFHFEFFPFMNLTALIILVGIGANNAFVLCDVWNYTKFDKPHAETSETVSITLQHAALSMFVTSFTTAAAFYANYVSNITAIRCFGVYAGTAILVNYVLMVTWLPAVVVLHERYLLNIFTCFKKPQQQIYDNKSCWTVACQKCHKVLFAISEASRIFFEKVLPCIVIKFRYLWLFWFLALTVGGAYIVCINPKMKLPSLELSEFQVFRSSHPFERYDAEYKKLFMFERVHHGEELHMPITVIWGVSPEDNGNPLNPKSKGKLTLDSSFNIASPASQAWILHFCQKLRNQTFFYQTDEQDFTSCFIETFKQWMENQDCDEPALYPCCSHWSFPYKQEIFELCIKRAIMELERSTGYHLDSKTPGPRFDINDTIRAVVLEFQSTYLFTLAYEKMHQFYKEVDSWISSELSSAPEGLSNGWFVSNLEFYDLQDSLSDGTLIAMGLSVAVAFSVMLLTTWNIIISLYAIISIAGTIFVTVGSLVLLGWELNVLESVTISVAVGLSVNFAVHYGVAYRLAPDPDREGKVIFSLSRVGSAMAMAALTTFVAGAMMMPSTVLAYTQLGTFMMLIMCISWAFATFFFQCMCRCLGPQGTCGQIPLPKKLQCSAFSHALSTSPSDKGQSKTHTINAYHLDPRGPKSELEHEFYELEPLASHSCTAPEKTTYEETHICSEFFNSQAKNLGMPVHAAYNSELSKSTESDAGSALLQPPLEQHTVCHFFSLNQRCSCPDAYKHLNYGPHSCQQMGDCLCHQCSPTTSSFVQIQNGVAPLKATHQAVEGFVHPITHIHHCPCLQGRVKPAGMQNSLPRNFFLHPVQHIQAQEKIGKTNVHSLQRSIEEHLPKMAEPSSFVCRSTGSLLKTCCDPENKQRELCKNRDVSNLESSGGTENKAGGKVELSLSQTDASVNSEHFNQNEPKVLFNHLMGEAGCRSCPNNSQSCGRIVRVKCNSVDCQMPNMEANVPAVLTHSELSGESLLIKTL | binds
